Measured values published in patent US20080058270A1 (published 2008).

Biological target: T1, lecithin:cholesterol acyltransferase (LCAT), purified from human plasma (human, UniProt P04180 25-440)
T1 sequence (looked up): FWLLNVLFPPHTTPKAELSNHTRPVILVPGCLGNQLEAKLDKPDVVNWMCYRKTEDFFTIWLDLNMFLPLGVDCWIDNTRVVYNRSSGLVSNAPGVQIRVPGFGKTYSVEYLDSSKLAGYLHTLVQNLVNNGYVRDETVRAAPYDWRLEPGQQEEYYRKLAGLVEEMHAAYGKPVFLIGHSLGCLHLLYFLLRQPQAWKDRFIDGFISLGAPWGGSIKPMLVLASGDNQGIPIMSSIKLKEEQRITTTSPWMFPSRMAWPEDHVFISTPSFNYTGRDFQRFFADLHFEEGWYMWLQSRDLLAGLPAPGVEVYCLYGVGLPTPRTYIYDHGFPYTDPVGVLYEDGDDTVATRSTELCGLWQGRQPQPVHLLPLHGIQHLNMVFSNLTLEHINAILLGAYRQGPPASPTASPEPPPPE
Experiment: cell-based or functional assay

LDDLLQKWAEAFNQLLKK [peptide 237]
ACTIVITY (%) LCAT: 111%
